This note sets out measurements from the nanobody polyreactivity screen of Harvey et al. (2022).

The nature of the series: yeast display, Sf9 membrane polyspecificity reagent, FACS + sequencing; frameworks hold sequencing errors. An outline of the steps: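 After 36–48 hours of galactose induction, yeast (Saccharomyces cerevisiae BJ5465) displaying a synthetic nanobody library were stained at 4 °C for 1 hour with 10% biotinylated, detergent-solubilized Sf9 membrane reagent. Streptavidin microbeads enriched the stained cells before FACS sorting into low and high (top ~1%) gates on anti-HA and streptavidin fluorescence. Each clone's polyreactivity label reflects its gate of origin.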
“QVQLVESVGGLVQAGGSLRLSCDASGGIFWVYAMGWYRQAPGKERELVAAISNSDTSTSYADSVKGRFTISRDNAKNTVYLQMNSLKPEDTAVYYCNADSPSLSGDYWGQGTQVTVSS”: the “polyreactivity (PSR sort gate)” value is listed as “low polyreactivity”.

On to “QVQLVESGGGLGQAGGSLRLSCAASGRTFFRYAMGWYRQAPGKERELVAAISSRGGSTYYADSVKGRFTISRDNAKNTVYLQMNSLKPEDTAVYYCNAAAFINFILYDYWGQGTQVTVSS”, for which the “polyreactivity (PSR sort gate)” value is “high polyreactivity”.

Regarding “QVQLVESGGGLVQAGGSLRLSCAASGSTFWSYAMGWYRQAPGKEREFVAAISSSDDSTYYADSVKGRFTISRDNAKNTVYLQMNSMKPEDTAVYYCATSWYIYPYDYWGQGTQVTVSS”, the “polyreactivity (PSR sort gate)” value is listed as “low polyreactivity”.

In the case of “QVQLVESGGGLVQAGGSLRLSCAASGSTFRYNTMGWDRQAPGKERELVAAISGGGGSTYYADSVKGRFTISRDNAKNTVYLQMNSLKPEDTAVYYCAKRHWYAGYVSSYTTRYDYWGQGTQVTVSS”, the “polyreactivity (PSR sort gate)” value was “low polyreactivity”.

As for “QVQLVESGGGLVQAGGSLRLSCASSGSIFRRYAMGWYRQATGKERELVAAISSNGGSTYYADSVKGRFTISRDNAKNTVYLQLNSLKPEDTAGYYCNAQVVHYRVSSVITYTIYDYWGQGTQVTVSS”, the “polyreactivity (PSR sort gate)” value is recorded as “high polyreactivity”.

Consider “QVQLVESGGGLVQAGGSLRLSCAACGRTFWSYAMGWYLQAPGKERELVAAINSGGSTDYADSVKGRFTISRDNAKNTVYLQMNSLKPEDTAVYYCAADTWYGFDWGQGTQVTVSS”, for which the “polyreactivity (PSR sort gate)” value was “high polyreactivity”.

Consider “QVQLVESGGGLVQAGGILRLSCAASGIIFQQYAMGWYRQAPGKERELVAAITYSGDGTYYADSEKGRFTISRDNAKNTVYLQMNSLKPEDTAVYYCNTDRKSRWARYEYWGQGTQVTVSS”, for which the “polyreactivity (PSR sort gate)” value is listed as “low polyreactivity”.

Take “QVQLVESGGGLVQAGGSLRLSCAASVITFGYYAMGWYRQAPGKERELVAAISRRGGNTYYADSVKGRFTISRDIAKNTVYLQMNSLKPEDTAVSYCATRALYWRYGYDYWGQGTQVTVSS”: the “polyreactivity (PSR sort gate)” value was “high polyreactivity”.

For the sequence “QVQLVESGGGLVQAGGSLRLSCAASGITFQYYAMGWYRQAPGKERELVAAITKRGGSTYYADSVKGRFTISRDNAKNTVYLQMTSLKPEETAVYYCAADLGGNSRLDYWGQGTQVTVSS”, the “polyreactivity (PSR sort gate)” value is recorded as “high polyreactivity”.

Consider “QVQLVESGGGLVPAGGSLRLSCAASGSTFPVYAMGWYRPAPGTERELVAAINSGVSTNYADSVKGRFTMSRDNANTTVYLQRNSLKPEDTAVYYCNTSYVGYPDLGINYEFDYWGQGTQVTVSS”, for which the “polyreactivity (PSR sort gate)” value is given as “low polyreactivity”.

Regarding “QVQLVESGGGLVQAGGSLRLSCAASGRIFQRYAMGWYRQAPGKERELVAGITSSGGSTYYADSVKGRFTISRDNAKNTVYLQMNSLKPEDTAVYYCNAGGELRYYGYRAGGTTRSYDYWGQGTQVTVSS”, the “polyreactivity (PSR sort gate)” value is recorded as “low polyreactivity”.

As for “QVQLVESGGGLVQAGGSLRLTCAASRRIFSYYAMGDYIQATGKERELVADINWSGGSTYYADSVKGRFTISRDNAKNTFYLQMNSLKPEDTAVYYCAVDWTSAYGTYYYTPYDSWGQGTQVTVSS”, the “polyreactivity (PSR sort gate)” value is recorded as “low polyreactivity”.

For the sequence “QVQLVESGGGLVQAGGSLRLSCAASGSIFTLYAMGWYRQAPGKERELVAAITWSGGSTYYADSVKGRFTISRDNAKNTVYLQMNSLKPEDTAVYFCAKDYLAGGPWEGHVEREYDYWGQGTQVTVSS”, the “polyreactivity (PSR sort gate)” value is “low polyreactivity”.

In the case of “QVQLVESGGGLVQAGGSLRLSCAASGFIIYFYAMGWYRQAPGKERELVAAINYPGDSTYYADSVKGRFTISRDNAKNTVYLQMNSLKPEDTAVYYCNKVLYNKWPYVTLSAFPTVGYWGQGTQVTVSS”, the “polyreactivity (PSR sort gate)” value is recorded as “high polyreactivity”.

For the sequence “QVQLEESGAGLVQAGGSLRLSCAASGYIFDKYTLGWYRQAPGKERELVAVISSRGGSTYYADSVKGRFTISRDNAKNTVYVQMNSRKPEDTAVYYCAARFYRPSVPYRYDYWGQGTQVTVSS”, the “polyreactivity (PSR sort gate)” value is “high polyreactivity”.

Regarding “QVQLVESGGGLVQAGGSLRLSCAASGRTFYFYVMGWYRQAPGKERELVARISYSDGSTYYADSVKGRFTISRDNAKNTVYLQMNSLKPEDTAVYYCNAYDPYYGRRYDYWGQGTQVTVSS”, the “polyreactivity (PSR sort gate)” value is listed as “low polyreactivity”.

As to “QVQLVESGGGLVQAGGSLRLSCAASGRIYDDYAMGWYRQAPGKERELVAAISSSGGSTYYADSVKGRFTISRDNAKNTVYLQMNSLKPEDTAVYYCARYPPGRRRYEYWGQGTQVTVSS”, the “polyreactivity (PSR sort gate)” value is recorded as “high polyreactivity”.

With “QVQLVESGGGLVQAGGSLRLSCAASGIIFQFYAMGWYRPAPGKERELVAAISRSGGITHYADSVKGRFTISRDNAKNTVYLQMNSLKPEDTAVYYCNAVQPARFVGGFGTGVDYWGQGTQVTVSS”, the “polyreactivity (PSR sort gate)” value is “high polyreactivity”.

On to “QVQLVESGGGLVQAGGRLRLSCAASGIIFVYYAMGWYRQAPGKERELVADITRSGSSTYYADSVKGRFTISRDNAKNTVYLQMNSLKAEDTAVYFCAADNFYQAYGYWGQGTQVTVSS”, for which the “polyreactivity (PSR sort gate)” value is “low polyreactivity”.

In the case of “QVQLVESGGGLVQAGGSLRLTCAASGSTLYWKAMGWYRQAPGKERELVASITSSGGSTYYADSVKGRFTISRDNAKNTVYLQMNSLKPEDTAVYDCATESWWRYSEYYYWGQGSQVTVSS”, the “polyreactivity (PSR sort gate)” value is “low polyreactivity”.

Regarding “QVQLVESGGGLVQAGGSLRLSCAASGSIFGGYVMGWFRQAPGKERELVAAITSNGGITYADSVKGRFTISRDNAKNTVYLQMHSLKPEDTAVYYCAADSWFYGGEYKFGYYWGQGTQVTVSS”, the “polyreactivity (PSR sort gate)” value is “low polyreactivity”.

With “QVQLVESGGGLVQAGGSLRLSCAASGIILRYYAMGWYRQAPGKERELVAAISGSGTRTYYADSVKGRFTISRDNAKNTVYLQMNSLKPEDTAVYYCAALVWGGYDYWGQGTQVTVSS”, the “polyreactivity (PSR sort gate)” value was “high polyreactivity”.

In the case of “QVQLVESGGGLVQAGGSLRLSCAASGSIFDNAMGWYRQAPGKERELVASIDQSGGSTYYADSVMGRFTISRDNAKNTVYLQMNSLKPEDTAVYYCAADSFTGYPYEMDYWGQGTQVTVSS”, the “polyreactivity (PSR sort gate)” value is “low polyreactivity”.

On to “QVQLVESGGGLVQAGGRLRLSCAASGSTFPKYAMGWYRQAPGKERELVASISVTTGSTYYADSVKGRFTISRDNAKNTVYLQMNSLKPEDTAVYYCAKRTYSRKFRGAYNYWGQGTQVTVSS”, for which the “polyreactivity (PSR sort gate)” value is reported as “high polyreactivity”.

Turning to “QLQLVESGGGLVQAGGSLRLSCAASGRNFVHNAMGWYRPAPGKEREFVAAISLRGGSTYYADSVKGRFTTSRDNAKNSVYLQMNSLKPEDTAVYYCAAVPAHFYGYDYWGQGTQVTVSS”, the “polyreactivity (PSR sort gate)” value is on record as “low polyreactivity”.

Turning to “QVQLVESGGGLVQAGGSLRLSCAASGSTFANNAMGWYRQAPGKERELVASITTDGSTNYADSVKGRFTIARDNAKNTVYLQMNSLKPEDTAVYYGAADYHTPSSFAPIELYDYWGQGTQVTVSS”, the “polyreactivity (PSR sort gate)” value was “low polyreactivity”.

“QVQLVESGGGLVQAGGSLRLSCAASGFTLGDNAMGWYRQAPGTERELVAAISASGGSTYYADSVKGRFTISRDNEKNTVYLQMNSLKPEDTAVYYCILHGYKYDYWGQGTQVTVSS”: the “polyreactivity (PSR sort gate)” value is given as “low polyreactivity”.

As for “QVQLVESVGGLDQAGGSLRLSCAASGSIFVGYAMGWYRQAPGKERELVAAITRSGVSTYYADSVKGRFTISRDNAKNTVYLQMNSLKPEDTAVYYCAADPTYRYWRVPWYEYDYWGQGTQVTVSS”, the “polyreactivity (PSR sort gate)” value is “low polyreactivity”.

On to “QVQLVETGGGLVQAGGSLRLSCAASGFTFTSYAMGWYRQAPGKERELVARITSSTGSTYYADSVKGRFTISRDNAKNTVDLQMNSMKPEDTAVYYCNARRQRNKSYNYWGQGTEVTVSS”, for which the “polyreactivity (PSR sort gate)” value is on record as “high polyreactivity”.

With “QVQLEESGGGLVQAGGSLRLSCAASGSILFFNAKGWYRQAPGKERELVADISTGGSTYYADSVKGRFTISRDNAKNTVYLQMNSLKPEDTAVYYCNADYYYFFYTLDYWGQGTQVTVSS”, the “polyreactivity (PSR sort gate)” value is “high polyreactivity”.

Turning to “QVQLVESGGGLVQAGGSLRLSCSASGSIFDAYAMGWYRQAPGKERELVAAITTGGGSTYYADSVKGRFTISRDNAKNTVYLQMNSLKPEDTAVYYCAAEGFATDGWWYYKAYDDWGQGTQVTVSS”, the “polyreactivity (PSR sort gate)” value is “low polyreactivity”.

For the sequence “QVQLVESGGGLVQAGGSLRLSCASSGRICGYYAMGLYRQAPGKERELVAAITSGGSTYYADSVKGRFTISRDNEKNTVYFQMKSLKPEDTAVYFCNKVTRYSPYDYWGQGTQVTVSS”, the “polyreactivity (PSR sort gate)” value was “high polyreactivity”.

With “QVQLVESGGGLVQAGGSLRLSCAASGRTFLTYVMGWYRQAPWKERELVAAITRGGRTNYADSVKGRFTISRDNAKNTVYLQMNSLKPEDTAVYYCARDDTPRYDYWGQGTQVTVSS”, the “polyreactivity (PSR sort gate)” value is on record as “low polyreactivity”.

In the case of “QVQLVESGGRLVQAGGSLRLSCAAAGSTIPKYAMGWYRQPPGKERELVAAITWRGGSTYYADSVKGRFTISRDNAKNTVYLQMNSLKPEDTAVDYCAAEPYYPSRMDYWGQGTQVTVSS”, the “polyreactivity (PSR sort gate)” value is recorded as “low polyreactivity”.

In the case of “QVQLLESGGGLVQSGGSLRLSCAASGLTFGSNAMGWYRQATGKEREMVAAISYGGGSTSYADSVKGRFTISRDNAKNTVYLQMNSLKPEDTSVYYCAVVWLCAYSRTNYYYWGQGTQVTVSS”, the “polyreactivity (PSR sort gate)” value is on record as “low polyreactivity”.

As for “QVQLVESGGGLFHAGGRLRLSCAASGYTFRYYAMGWSRQAPGKERELVAGIDSGGGSTYYAASVKGRFTISRDNAKYTVYLQMNSLKPEDTAVYYCAVDTYSWYGEYYYWGQGTQVTVSS”, the “polyreactivity (PSR sort gate)” value is given as “high polyreactivity”.

For “QVQLEESGGGLVQAGGSLRLSCAASGFIFPHYTMGWYRQAPGKERELVAAISSSGGSTYYADSVKGRFTISRDNAKKTVYLQMNSLKPEDTAVYYCPGPLPYYGQYDYWGQGTQVTVSS”, the “polyreactivity (PSR sort gate)” value is listed as “low polyreactivity”.

On to “QVQLVESGGGLVQAGGSLRLSCAASGSIFDVNTMGWYRQAPGKERELVAAITNGYRTNYADSVKGRFTISRDNAKNTVYLQMNILKPEDTSVYYCNTDQGTTSDYCFWGQGTQVTVSS”, for which the “polyreactivity (PSR sort gate)” value is recorded as “low polyreactivity”.

“QVQLVESGGGLVQAGGSLPLSCAASGRIFNSNAMGWYRQAPGKERELVAAIPISGSTNYADSVKGRFTISRDNAKNTVYFQMNSLKPEDTAVYYCAAQRTSHGRGVNGYVKYGYWGQGTIVTVSS”: the “polyreactivity (PSR sort gate)” value is “high polyreactivity”.

“QVQLVESGGGLVQAGGSLRLSCAASGRTFPYYVMGWYRQAPGKERELVAAINSGGRTNYADSVKGRFTISRDNAKNTVYLQMNSLKPEETAVYYCTKRGHPARLGYYYWGQGTQVTGSS”: the “polyreactivity (PSR sort gate)” value was “low polyreactivity”.

As to “QVQLVESGGGLVQAGGSLRLSSAASGRIFWPNTIGWYRQAPGKERELVAAISWSGGSTYYADSVKGRFTISRDNAKNTVYLQMNSLIPEDTAVYYFNARYPNTRKYDYWGQGTQVTVSS”, the “polyreactivity (PSR sort gate)” value is on record as “high polyreactivity”.
